Data from the supplement of paper PMC5998384.

Tests used:
[1] = system: HeLa Kyoto; assay: solubility in G1/S (NP-40 vs SDS abundance) (log2 ratio); higher = more soluble; settings: cell cycle stage: G1/S
[2] = system: HeLa Kyoto; assay: solubility change mitosis vs G1/S (difference of NP-40 vs SDS log2 ratios) (log2 ratio difference); higher = more soluble in mitosis
[3] = system: HeLa Kyoto; assay: melting temperature (median over replicates), in situ; higher = more thermally stable
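Throughout, for melting temperature (median over replicates), in situ: HeLa Kyoto cells synchronized by double thymidine or nocodazole block, proteins quantified by TMT10plex mass spectrometry, three independent biological replicates.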
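Throughout, for solubility change mitosis vs G1/S (difference of NP-40 vs SDS log2 ratios): synchronized HeLa Kyoto cells (double thymidine block for G1/S, nocodazole release for mitosis), protein amounts in NP-40 versus SDS lysates quantified by mass spectrometry, three biological replicates.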
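Throughout, for solubility in G1/S (NP-40 vs SDS abundance): HeLa Kyoto cells arrested at G1/S by double thymidine block, proteins quantified by TMT10plex mass spectrometry in mild NP-40 versus SDS extracts, three biological replicates.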

Substance | solubility in G1/S (log2) [1] | solubility change mitosis (log2) [2] | melting temperature ([3]; cell cycle stage: G1/S) | melting temperature ([3]; cell cycle stage: mitosis)
MEEYHRHCDEVGFNAEEAHNIVKECVDGVLGGEDYNHNNINQWTASIVEQSLTHLVKLGKAYKYIVTCAVVQKSAYGFHTASSCFWDTTSDGTCTVRWENRTMNCIVNVFAIAIVL [DYNLT3] | -0.189 | -0.243 | 53.3 °C | 54.1 °C
MSQSRHRAEAPPLEREDSGTFSLGKMITAKPGKTPIQVLHEYGMKTKNIPVYECERSDVQIHVPTFTFRVTVGDITCTGEGTSKKLAKHRAAEAAINILKANASICFAVPDPLMPDPSKQPKNQLNPIGSLQELAIHHGWRLPEYTLSQEGGPAHKREYTTICRLESFMETGKGASKKQAKRNAAEKFLAKFSNISPENHISLTNVVGHSLGCTWHSLRNSPGEKINLLKRSLLSIPNTDYIQLLSEIAKEQGFNITYLDIDELSANGQYQCLAELSTSPITVCHGSGISCGNAQSDAAHNALQYLKIIAERK [PRKRA] | 0.0756 | 0.0942 | 50.1 °C | 50 °C
MGEEANDDKKPTTKFELERETELRFEVEASQSVQLELLTGMAEIFGTELTRNKKFTFDAGAKVAVFTWHGCSVQLSGRTEVAYVSKDTPMLLYLNTHTALEQMRRQAEKEEERGPRVMVVGPTDVGKSTVCRLLLNYAVRLGRRPTYVELDVGQGSVSIPGTMGALYIERPADVEEGFSIQAPLVYHFGSTTPGTNIKLYNKITSRLADVFNQRCEVNRRASVSGCVINTCGWVKGSGYQALVHAASAFEVDVVVVLDQERLYNELKRDLPHFVRTVLLPKSGGVVERSKDFRRECRDERIREYFYGFRGCFYPHAFNVKFSDVKIYKVGAPTIPDSCLPLGMSQEDNQLKLVPVTPGRDMVHHLLSVSTAEGTEENLSETSVAGFIVVTSVDLEHQVFTVLSPAPRPLPKNFLLIMDIRFMDLK [CLP1] | -0.181 | -0.0019 | 46.9 °C | 48.8 °C
MGLGPVFLLLAGIFPFAPPGAAAEPHSLRYNLTVLSWDGSVQSGFLTEVHLDGQPFLRCDRQKCRAKPQGQWAEDVLGNKTWDRETRDLTGNGKDLRMTLAHIKDQKEGLHSLQEIRVCEIHEDNSTRSSQHFYYDGELFLSQNLETKEWTMPQSSRAQTLAMNVRNFLKEDAMKTKTHYHAMHADCLQELRRYLKSGVVLRRTVPPMVNVTRSEASEGNITVTCRASGFYPWNITLSWRQDGVSLSHDTQQWGDVLPDGNGTYQTWVATRICQGEEQRFTCYMEHSGNHSTHPVPSGKVLVLQSHWQTFHVSAVAAAAIFVIIIFYVRCCKKKTSAAEGPELVSLQVLDQHPVGTSDHRDATQLGFQPLMSDLGSTGSTEGA [MICA] | -0.128 | -0.108 | 55.9 °C | 57.2 °C
MPNFCAAPNCTRKSTQSDLAFFRFPRDPARCQKWVENCRRADLEDKTPDQLNKHYRLCAKHFETSMICRTSPYRTVLRDNAIPTIFDLTSHLNNPHSRHRKRIKELSEDEIRTLKQKKIDETSEQEQKHKETNNSNAQNPSEEEGEGQDEDILPLTLEEKENKEYLKSLFEILILMGKQNIPLDGHEADEIPEGLFTPDNFQALLECRINSGEEVLRKRFETTAVNTLFCSKTQQRQMLEICESCIREETLREVRDSHFFSIITDDVVDIAGEEHLPVLVRFVDESHNLREEFIGFLPYEADAEILAVKFHTMITEKWGLNMEYCRGQAYIVSSGFSSKMKVVASRLLEKYPQAIYTLCSSCALNMWLAKSVPVMGVSVALGTIEEVCSFFHRSPQLLLELDNVISVLFQNSKERGKELKEICHSQWTGRHDAFEILVELLQALVLCLDGINSDTNIRWNNYIAGRAFVLCSAVSDFDFIVTIVVLKNVLSFTRAFGKNLQGQTSDVFFAAGSLTAVLHSLNEVMENIEVYHEFWFEEATNLATKLDIQMKLPGKFRRAHQGNLESQLTSESYYKETLSVPTVEHIIQELKDIFSEQHLKALKCLSLVPSVMGQLKFNTSEEHHADMYRSDLPNPDTLSAELHCWRIKWKHRGKDIELPSTIYEALHLPDIKFFPNVYALLKVLCILPVMKVENERYENGRKRLKAYLRNTLTDQRSSNLALLNINFDIKHDLDLMVDTYIKLYTSKSELPTDNSETVENT [PRKRIR] | 0.246 | -0.0658 | 51.3 °C | 50.9 °C
MENFRKVRSEEAPAGCGAEGGGPGSGPFADLAPGAVHMRVKEGSKIRNLMAFATASMAQPATRAIVFSGCGRATTKTVTCAEILKRRLAGLHQVTRLRYRSVREVWQSLPPGPTQGQTPGEPAASLSVLKNVPGLAILLSKDALDPRQPGYQPPNPHPGPSSPPAAPASKRSLGEPAAGEGSAKRSQPEPGVADEDQTA [RPP25] | 0.179 | 0.258 | 54.5 °C | 53.7 °C
MVPGSEGPARAGSVVADVVFVIEGTANLGPYFEGLRKHYLLPAIEYFNGGPPAETDFGGDYGGTQYSLVVFNTVDCAPESYVQCHAPTSSAYEFVTWLDGIKFMGGGGESCSLIAEGLSTALQLFDDFKKMREQIGQTHRVCLLICNSPPYLLPAVESTTYSGCTTENLVQQIGERGIHFSIVSPRKLPALRLLFEKAAPPALLEPLQPPTDVSQDPRHMVLVRGLVLPVGGGSAPGPLQSKQPVPLPPAAPSGATLSAAPQQPLPPVPPQYQVPGNLSAAQVAAQNAVEAAKNQKAGLGPRFSPITPLQQAAPGVGPPFSQAPAPQLPPGPPGAPKPPPASQPSLVSTVAPGSGLAPTAQPGAPSMAGTVAPGGVSGPSPAQLGAPALGGQQSVSNKLLAWSGVLEWQEKPKPASVDANTKLTRSLPCQVYVNHGENLKTEQWPQKLIMQLIPQQLLTTLGPLFRNSRMVQFHFTNKDLESLKGLYRIMGNGFAGCVHFPHTAPCEVRVLMLLYSSKKKIFMGLIPYDQSGFVNGIRQVITNHKQVQQQKLEQQQRGMGGQQAPPGLGPILEDQARPSQNLLQLRPPQPQPQGTVGASGATGQPQPQGTAQPPPGAPQGPPGAASGPPPPGPILRPQNPGANPQLRSLLLNPPPPQTGVPPPQASLHHLQPPGAPALLPPPHQGLGQPQLGPPLLHPPPAQSWPAQLPPRAPLPGQMLLSGGPRGPVPQPGLQPSVMEDDILMDLI [MED25] | 0.612 | -0.172 | 52.1 °C | 50.9 °C
MSTGFSFGSGTLGSTTVAAGGTSTGGVFSFGTGASSNPSVGLNFGNLGSTSTPATTSAPSSGFGTGLFGSKPATGFTLGGTNTGIATTITTGLTLGTPATTSAATTGFSLGFNKPAASATPFALPITSTSASGLTLSSALTSTPAASTGFTLNNLGGTTATTTTASTGLSLGGALAGLGGSLFQSTNTGTSGLGQNALGLTLGTTAATSTAGNEGLGGIDFSSSSDKKSDKTGTRPEDSKALKDENLPPVICQDVENLQKFVKEQKQVQEEISRMSSKAMLKVQEDIKALKQLLSLAANGIQRNTLNIDKLKIETAQELKNAEIALRTQKTPPGLQHEYAAPADYFRILVQQFEVQLQQYRQQIEELENHLATQANNSHITPQDLSMAMQKIYQTFVALAAQLQSIHENVKVLKEQYLGYRKMFLGDAVDVFETRRAEAKKWQNTPRVTTGPTPFSTMPNAAAVAMAATLTQQQQPATGPQPSLGVSFGTPFGSGIGTGLQSSGLGSSNLGGFGTSSGFGCSTTGASTFGFGTTNKPSGSLSAGFGSSSTSGFNFSNPGITASAGLTFGVSNPASAGFGTGGQLLQLKKPPAGNKRGKR [NUP58] | 0.542 | 0.234 | 54.1 °C | 52.7 °C
MGGLFWRSALRGLRCGPRAPGPSLLVRHGSGGPSWTRERTLVAVKPDGVQRRLVGDVIQRFERRGFTLVGMKMLQAPESVLAEHYQDLRRKPFYPALIRYMSSGPVVAMVWEGYNVVRASRAMIGHTDSAEAAPGTIRGDFSVHISRNVIHASDSVEGAQREIQLWFQSSELVSWADGGQHSSIHPA [NME4] | 0.0944 | -0.189 | 54.9 °C | 54.5 °C
MSGAGEALAPGPVGPQRVAEAGGGQLGSTAQGKCDKDNTEKDITQATNSHFTHGEMQDQSIWGNPSDGELIRTQPQRLPQLQTSAQVPSGEEIGKIKNGHTGLSNGNGIHHGAKHGSADNRKLSAPVSQKMHRKIQSSLSVNSDISKKSKVNAVFSQKTGSSPEDCCVHCILACLFCEFLTLCNIVLGQASCGICTSEACCCCCGDEMGDDCNCPCDMDCGIMDACCESSDCLEICMECCGICFPS [MDFIC] | -0.698 | 0.671 | 57.2 °C | 55.7 °C
MRRAAGMEDFSAEEEESWYDQQDLEQDLHLAAELGKTLLERNKELEGSLQQMYSTNEEQVQEIEYLTKQLDTLRHVNEQHAKVYEQLDLTARDLELTNHRLVLESKAAQQKIHGLTETIERLQAQVEELQAQVEQLRGLEQLRVLREKRERRRTIHTFPCLKELCTSPRCKDAFRLHSSSLELGPRPLEQENERLQTLVGALRSQVSQERQRKERAEREYTAVLQEYSELERQLCEMEACRLRVQELEAELLELQQMKQAKTYLLGPDDHLAEALLAPLTQAPEADDPQPGRGDDLGAQDGVSSPAASPGHVVRKSCSDTALNAIVAKDPASRHAGNLTLHANSVRKRGMSILREVDEQYHALLEKYEELLSKCRQHGAGVRHAGVQTSRPISRDSSWRDLRGGEEGQGEVKAGEKSLSQHVEAVDKRLEQSQPEYKALFKEIFSRIQKTKADINATKVKTHSSK [CDR2L] | 0.549 | -0.204 | 52.5 °C | –
MAVSGFTLGTCILLLHISYVANYPNGKVTQSCHGMIPEHGHSPQSVPVHDIYVSQMTFRPGDQIEVTLSGHPFKGFLLEARNAEDLNGPPIGSFTLIDSEVSQLLTCEDIQGSAVSHRSASKKTEIKVYWNAPSSAPNHTQFLVTVVEKYKIYWVKIPGPIISQPNAFPFTTPKATVVPLPTLPPVSHLTKPFSASDCGNKKFCIRSPLNCDPEKEASCVFLSFTRDDQSVMVEMSGPSKGYLSFALSHDQWMGDDDAYLCIHEDQTVYIQPSHLTGRSHPVMDSRDTLEDMAWRLADGVMQCSFRRNITLPGVKNRFDLNTSYYIFLADGAANDGRIYKHSQQPLITYEKYDVTDSPKNIGGSHSVLLLKVHGALMFVAWMTTVSIGVLVARFFKPVWSKAFLLGEAAWFQVHRMLMFTTTVLTCIAFVMPFIYRGGWSRHAGYHPYLGCIVMTLAVLQPLLAVFRPPLHDPRRQMFNWTHWSMGTAARIIAVAAMFLGMDLPGLNLPDSWKTYAMTGFVAWHVGTEVVLEVHAYRLSRKVEILDDDRIQILQSFTAVETEGHAFKKAVLAIYVCGNVTFLIIFLSAINHL [FRRS1] | 0.0918 | 0.186 | 58.8 °C | –
MGRKVTVATCALNQWALDFEGNLQRILKSIEIAKNRGARYRLGPELEICGYGCWDHYYESDTLLHSFQVLAALVESPVTQDIICDVGMPVMHRNVRYNCRVIFLNRKILLIRPKMALANEGNYRELRWFTPWSRSRHTEEYFLPRMIQDLTKQETVPFGDAVLVTWDTCIGSEICEELWTPHSPHIDMGLDGVEIITNASGSHQVLRKANTRVDLVTMVTSKNGGIYLLANQKGCDGDRLYYDGCAMIAMNGSVFAQGSQFSLDDVEVLTATLDLEDVRSYRAEISSRNLAASRASPYPRVKVDFALSCHEDLLAPISEPIEWKYHSPEEEISLGPACWLWDFLRRSQQAGFLLPLSGGVDSAATACLIYSMCCQVCEAVRSGNEEVLADVRTIVNQISYTPQDPRDLCGRILTTCYMASKNSSQETCTRARELAQQIGSHHISLNIDPAVKAVMGIFSLVTGKSPLFAAHGGSSRENLALQNVQARIRMVLAYLFAQLSLWSRGVHGGLLVLGSANVDESLLGYLTKYDCSSADINPIGGISKTDLRAFVQFCIQRFQLPALQSILLAPATAELEPLADGQVSQTDEEDMGMTYAELSVYGKLRKVAKMGPYSMFCKLLGMWRHICTPRQVADKVKRFFSKYSMNRHKMTTLTPAYHAENYSPEDNRFDLRPFLYNTSWPWQFRCIENQVLQLERAEPQSLDGVD [NADSYN1] | 0.157 | -0.234 | – | 56.3 °C
KANSL3 | 0.155 | 0.061 | – | 48.6 °C
